Laboratory results reported in publication PMC8798132.

Target: HLA-DPB1 (from the recombinant plasmid pEGFP-N2-HLA-DPB1, expressed in 293T cells) (human) (UniProt P04440)
Test: flow cytometry on cells

Sequence of UniProt P04440 (P04440 30-225): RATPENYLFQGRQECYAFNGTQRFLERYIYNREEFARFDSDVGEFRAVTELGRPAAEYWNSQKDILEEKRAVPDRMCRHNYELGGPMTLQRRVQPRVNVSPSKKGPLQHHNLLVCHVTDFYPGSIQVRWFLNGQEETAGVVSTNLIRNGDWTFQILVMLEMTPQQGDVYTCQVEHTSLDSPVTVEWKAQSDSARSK

gp42/gHgL complex protein (from UniProt P03205 33-223; P03231 19-706; P03212 23-137)
HLA-DP+ gp42+ cells (%) at 20 ug gp42 protein: 12.4% | HLA-DP+ gp42+ cells (%) at 40 ug gp42 protein: 18.4% | HLA-DP+ gp42+ cells (%) at 80 ug gp42 protein: 27.1% | HLA-DPB1+ gp42+ cells (%), HLA-DPB1 recombinant plasmid group: 28.9% | gp42+ cells (%) at 20 ug gp42 protein: 14% | gp42+ cells (%) at 40 ug gp42 protein: 20.1% | gp42+ cells (%) at 80 ug gp42 protein: 29.3% | gp42+ cells (%), HLA-DPB1 recombinant plasmid group: 28.6%
